± gives the standard deviation of the averaged measurements.
Test system: ATP
Experiment: switch fluorescence ratio, 500 uM ATP over buffer (Cy3 cluster intensity, sum of 5 cycles each) (fold (ratio)); higher = stronger signal-on switching upon ATP binding; sequences stand for … in TCGTCGGCAGCGTCAGATGTGTATAAGAGACAGTTTTTTTTTTTTTTTTTTTTTTTTT…TC
Conditions: aptamer strand: ATP DNA aptamer (quencher-CACCTGGGGGAGTATTGCGGAGGAAGG + anchor), 100 nM annealed; ATP concentration: 500 uM
Summary of the method: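 After annealing to 100 nM quencher-labelled ATP aptamer, Cy3-labelled switching-strand clusters on a modified Illumina MiSeq flow-cell were imaged in selection buffer. A second image followed after 15 min with 500 uM ATP at 22 °C, and five such buffer/ATP cycles were done, each separated by NaOH stripping and re-annealing. The fluorescence ratio, averaged per switch-domain sequence, is summed target-cycle over summed buffer-cycle Cy3 intensity per cluster, with clusters outside 100-1000 RFU excluded.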
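Note: ATP exposure 15 min at 22 °C before imaging.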

Row | Sequence | switch fluorescence ratio
1 | GATTTTAGTG | 0.969 ± 0.015
2 | GATTTTCATG | 1 ± 0.013
3 | GATTTTGCCG | 1.11 ± 0.1
4 | GATTTTGTGT | 0.98 ± 0.043
5 | GATTTTTATT | 0.988 ± 0.025
6 | GATTTTTCAT | 1 ± 0.034
7 | GATTTTTTCG | 0.997 ± 0.01
8 | GATTTTTTGG | 0.991 ± 0.034
9 | GCAAAAAAAC | 1.02 ± 0.067
10 | GCAAAAGGAG | 1 ± 0.059
11 | GCAAAGGGCG | 1.03 ± 0.034
12 | GCAAAGGGGG | 0.9758 ± 0.006
13 | GCAACCCGGA | 1.01 ± 0.012
14 | GCAACCCGGT | 1.028 ± 0.0037
15 | GCAACTTCGG | 0.992 ± 0.016
16 | GCAAGAGGGG | 1.06 ± 0.039
17 | GCAAGAGTGG | 1 ± 0.034
18 | GCAAGATTCA | 1 ± 0.021
19 | GCAAGGCGAG | 1.3 ± 0.031
20 | GCAAGGGGAT | 1.06 ± 0.11
21 | GCAAGGTTTT | 0.979 ± 0.027
22 | GCAAGTGGTG | 1.02 ± 0.03
23 | GCAATCTGGG | 1.38 ± 0.079
24 | GCAATGAGGG | 1.14 ± 0.034
25 | GCAATGGCAT | 0.987 ± 0.03

Row | Sequence | switch fluorescence ratio
26 | GCAATTAAAG | 1.12 ± 0.14
27 | GCAATTAATG | 1 ± 0.015
28 | GCAATTCTAC | 3.085 ± 0.025
29 | GCAATTGAGT | 0.997 ± 0.036
30 | GCAATTGGTC | 1.25 ± 0.06
31 | GCAATTTGAT | 1.01 ± 0.02
32 | GCACATAGGG | 1.02 ± 0.011
33 | GCACATGAGA | 1.02 ± 0.021
34 | GCACCATTCC | 1.72 ± 0.07
35 | GCACCCCGCC | 1.33 ± 0.036
36 | GCACCGGGGC | 0.971 ± 0.015
37 | GCACGAGTGC | 0.97 ± 0.02
38 | GCACGCCGAG | 1.01 ± 0.012
39 | GCACGCCTGG | 1.0842 ± 0.00097
40 | GCACGGGCCC | 0.99 ± 0.028
41 | GCACGGGGGA | 0.9884 ± 0.0077
42 | GCACGTAGCG | 1.06 ± 0.046
43 | GCACTCAGGC | 0.994 ± 0.03
44 | GCACTCGGTG | 1.01 ± 0.048
45 | GCACTGGT | 1.04 ± 0.062
46 | GCACTGGTAT | 1.05 ± 0.024
47 | GCACTTCCCT | 1.19 ± 0.014
48 | GCAGATGGTT | 1.01 ± 0.015
49 | GCAGATTTTG | 0.98 ± 0.038
50 | GCAGCAGGGG | 1.84 ± 0.23

Row | Sequence | switch fluorescence ratio
51 | GCAGCCCCTG | 1.02 ± 0.048
52 | GCAGCGTTCT | 1.04 ± 0.069
53 | GCAGCTGGG | 1.03 ± 0.039
54 | GCAGGATCCG | 0.99684 ± 0.00077
55 | GCAGGATGAA | 0.97 ± 0.042
56 | GCAGGGATGC | 1 ± 0.057
57 | GCAGGGGACG | 1.05 ± 0.015
58 | GCAGGGGCCC | 1.02 ± 0.027
59 | GCAGGGGGCC | 1.4 ± 0.63
60 | GCAGGGTGCG | 1 ± 0.032
61 | GCAGGGTGGC | 1 ± 0.062
62 | GCAGGTGACT | 1.33 ± 0.077
63 | GCAGGTTCAG | 0.975 ± 0.021
64 | GCAGGTTTTG | 0.987 ± 0.04
65 | GCAGTAAATA | 1.009 ± 0.0086
66 | GCAGTAGCTG | 0.998 ± 0.011
67 | GCAGTAGGGG | 0.989 ± 0.015
68 | GCAGTCAAGC | 1.08 ± 0.011
69 | GCAGTCCGAG | 1.07 ± 0.043
70 | GCAGTCCTTT | 0.958 ± 0.029
71 | GCAGTCTGCC | 1.02 ± 0.07
72 | GCAGTCTGGG | 0.991 ± 0.01
73 | GCAGTGGGGG | 1 ± 0.08
74 | GCAGTGGGTT | 1.02 ± 0.074
75 | GCAGTTAAAC | 1.04 ± 0.045

Row | Sequence | switch fluorescence ratio
76 | GCAGTTGCTG | 0.999 ± 0.02
77 | GCAGTTTTCA | 1.04 ± 0.095
78 | GCATAAGGGG | 0.992 ± 0.018
79 | GCATAGAGCG | 1.02 ± 0.065
80 | GCATAGGTTA | 1 ± 0.015
81 | GCATCACGTT | 1 ± 0.029
82 | GCATCCCGAG | 1.02 ± 0.025
83 | GCATCGAGGC | 1.01 ± 0.14
84 | GCATCTGTAG | 1 ± 0.067
85 | GCATGAAGTA | 0.99 ± 0.017
86 | GCATGACCAG | 0.974 ± 0.026
87 | GCATGGAGGG | 1.01 ± 0.025
88 | GCATGGCCTA | 0.997 ± 0.021
89 | GCATGTATAT | 0.978 ± 0.045
90 | GCATGTATGG | 0.983 ± 0.044
91 | GCATGTCAGT | 0.9762 ± 0.00048
92 | GCATGTCGGG | 1.03 ± 0.015
93 | GCATGTCTTG | 1 ± 0.028
94 | GCATGTGAAA | 1 ± 0.015
95 | GCATTAAGAC | 1.23 ± 0.091
96 | GCATTAAGGG | 1.01 ± 0.039
97 | GCATTAATCG | 1.01 ± 0.025
98 | GCATTCGCCT | 1.08 ± 0.035
99 | GCATTGACGG | 1.03 ± 0.02
100 | GCATTGTGTA | 0.9995 ± 0.003

Row | Sequence | switch fluorescence ratio
101 | GCATTTAATG | 1 ± 0.05
102 | GCATTTCCCG | 1.06 ± 0.091
103 | GCATTTTCAG | 0.989 ± 0.021
104 | GCATTTTCAT | 0.9766 ± 0.0094
105 | GCCAAATTAG | 0.956 ± 0.011
106 | GCCAAATTGG | 1.02 ± 0.0071
107 | GCCAAGGGAT | 0.9721 ± 0.0082
108 | GCCACAGTAC | 3.04 ± 0.098
109 | GCCAGAGAGG | 1.005 ± 0.0091
110 | GCCAGAGCGA | 1.27 ± 0.0013
111 | GCCAGGGAAA | 0.9958 ± 0.0046
112 | GCCAGGTTCC | 1.09 ± 0.034
113 | GCCATATTGG | 0.9715 ± 0.0077
114 | GCCATCGATC | 1.017 ± 0.0079
115 | GCCATTTGAC | 1.02 ± 0.042
116 | GCCCACCACA | 1.08 ± 0.028
117 | GCCCACTATT | 0.988 ± 0.01
118 | GCCCCCTTGG | 2.02 ± 0.026
119 | GCCCCTGTTT | 1 ± 0.023
120 | GCCCGCAAGG | 1.42 ± 0.015
121 | GCCCGGGGCT | 1.028 ± 0.0057
122 | GCCCGTGGAA | 0.9893 ± 0.0057
123 | GCCCTATCAT | 0.981 ± 0.027
124 | GCCCTCACGT | 1.08 ± 0.081
125 | GCCCTGATGG | 1 ± 0.035

Row | Sequence | switch fluorescence ratio
126 | GCCGAAGTTA | 1.12 ± 0.042
127 | GCCGACTCTG | 1.04 ± 0.048
128 | GCCGAGAAGT | 0.985 ± 0.027
129 | GCCGAGGGGT | 1.037 ± 0.008
130 | GCCGATAGGG | 0.9975 ± 0.0039
131 | GCCGCATGTG | 1.28 ± 0.036
132 | GCCGCCACCT | 1.07 ± 0.019
133 | GCCGCGCGCT | 1 ± 0.082
134 | GCCGCGGGAA | 1 ± 0.051
135 | GCCGCTACCT | 1.11 ± 0.079
136 | GCCGGAAAGT | 1.05 ± 0.07
137 | GCCGGAAGGC | 0.98 ± 0.076
138 | GCCGGCAAAT | 0.995 ± 0.051
139 | GCCGGGATGG | 1 ± 0.031
140 | GCCGGGCGGG | 0.999 ± 0.038
141 | GCCGGGGACA | 1.03 ± 0.053
142 | GCCGGGGACC | 0.98 ± 0.031
143 | GCCGGGGAGC | 1.02 ± 0.045
144 | GCCGGGGATG | 1.007 ± 0.0024
145 | GCCGGGGCGG | 1.006 ± 0.0041
146 | GCCGGGTCAG | 1.02 ± 0.026
147 | GCCGGTCGTC | 1.0461 ± 0.00046
148 | GCCGGTGCTC | 0.996 ± 0.021
149 | GCCGGTTTCT | 1.01 ± 0.031
150 | GCCGTCGTTG | 1 ± 0.019

Row | Sequence | switch fluorescence ratio
151 | GCCGTGGGAG | 0.986 ± 0.052
152 | GCCGTGTTGG | 1 ± 0.032
153 | GCCGTTAACG | 0.969 ± 0.028
154 | GCCTAACGCG | 1.03 ± 0.018
155 | GCCTAATTTT | 0.984 ± 0.021
156 | GCCTAGTATA | 0.9714 ± 0.0049
157 | GCCTAGTTGT | 0.977 ± 0.028
158 | GCCTCGGGGC | 1.02 ± 0.032
159 | GCCTCTGGTC | 0.992 ± 0.028
160 | GCCTGATTTA | 0.95 ± 0.029
161 | GCCTGTTCGG | 0.977 ± 0.024
162 | GCCTGTTTTG | 1 ± 0.046
163 | GCCTTAGTCT | 0.962 ± 0.098
164 | GCCTTGTGCG | 1.01 ± 0.018
165 | GCCTTTAGGG | 1 ± 0.024
166 | GCCTTTGTTT | 0.986 ± 0.02
167 | GCCTTTTGCT | 0.988 ± 0.018
168 | GCCTTTTTGG | 1.02 ± 0.022
169 | GCGAAAAGAT | 0.982 ± 0.018
170 | GCGAAAGGCG | 0.992 ± 0.022
171 | GCGAACCCAA | 1.18 ± 0.048
172 | GCGAACGGTT | 1.03 ± 0.021
173 | GCGAATATGC | 1.1 ± 0.038
174 | GCGAATGTTT | 0.9812 ± 0.0029
175 | GCGAATTAAT | 0.979 ± 0.033

Row | Sequence | switch fluorescence ratio
176 | GCGAATTGGG | 1.02 ± 0.024
177 | GCGACCAGGC | 1.14 ± 0.079
178 | GCGACCCTTT | 1.118 ± 0.0042
179 | GCGACGAGTA | 1.074 ± 0.004
180 | GCGAGAATGT | 0.9879 ± 0.0039
181 | GCGAGACCAG | 1.64 ± 0.051
182 | GCGAGAGAGT | 0.99812 ± 0.0009
183 | GCGAGGAATA | 1.2 ± 0.079
184 | GCGAGGGAAC | 1.03 ± 0.015
185 | GCGAGGGTTC | 0.991 ± 0.029
186 | GCGAGTACGA | 1.02 ± 0.032
187 | GCGAGTCATT | 0.9845 ± 0.007
188 | GCGAGTCTCG | 1.03 ± 0.044
189 | GCGAGTGTAC | 0.983 ± 0.094
190 | GCGAGTGTTT | 1.02 ± 0.048
191 | GCGATAGTTG | 1.02 ± 0.053
192 | GCGATATAGC | 1.03 ± 0.027
193 | GCGATATGTG | 1.013 ± 0.0073
194 | GCGATCAATT | 1.14 ± 0.051
195 | GCGATCAGAG | 1.04 ± 0.037
196 | GCGATGGTGT | 1.02 ± 0.008
197 | GCGATTATGG | 0.977 ± 0.019
198 | GCGATTCCAG | 1.02 ± 0.0065
199 | GCGATTTGGC | 1.01 ± 0.056
200 | GCGCAACTGG | 1.352 ± 0.0074
